Experimental data taken from the supplement of paper PMC9233669.
This sample holds only a part of the variants without activity.

Assays:
biotinyl-Ile-oxazolone = test: self-aminoacylation, catalytic enhancement (BIO) (fold over background); higher = more active; k-Seq, kA / k0A0; sequences stand for … in GGGAAUGGAUCCACAUCUACGAAUUC…UUCACUGCAGACUUGACGAAGCUG
Method in brief: (§1)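 Mutagenized RNA pools with a 21-nt variable region (0.43 μM) reacted with each biotinyl-aminoacyl-oxazolone at 2–1250 μM. Reactions ran in 50 μL HEPES/NaCl/KCl/MgCl2/CaCl2 buffer with 5% acetonitrile, pH 6.9–7.0, for 90 minutes at room temperature. Streptavidin-captured RNA was quantified by triplicate qPCR and Illumina sequencing, and per-sequence fraction reacted was fit to a pseudo-first-order model with 1000 bootstraps. Catalytic enhancement is median kA divided by the uncatalyzed rate, the low-activity peak of a bimodal Gaussian fit.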

biotinyl-Leu-oxazolone = test: self-aminoacylation, catalytic enhancement (BLO) (fold over background); higher = more active; k-Seq, kA / k0A0; sequences stand for … in GGGAAUGGAUCCACAUCUACGAAUUC…UUCACUGCAGACUUGACGAAGCUG
Method in brief: as §1

biotinyl-Phe-oxazolone = test: self-aminoacylation, catalytic enhancement (BFO) (fold over background); higher = more active; k-Seq, kA / k0A0; sequences stand for … in GGGAAUGGAUCCACAUCUACGAAUUC…UUCACUGCAGACUUGACGAAGCUG
Method in brief: as §1

biotinyl-Met-oxazolone = test: self-aminoacylation, catalytic enhancement (BMO) (fold over background); higher = more active; k-Seq, kA / k0A0; sequences stand for … in GGGAAUGGAUCCACAUCUACGAAUUC…UUCACUGCAGACUUGACGAAGCUG
Method in brief: as §1

biotinyl-Val-oxazolone = test: self-aminoacylation, catalytic enhancement (BVO) (fold over background); higher = more active; k-Seq, kA / k0A0; sequences stand for … in GGGAAUGGAUCCACAUCUACGAAUUC…UUCACUGCAGACUUGACGAAGCUG
Method in brief: as §1

biotinyl-Trp-oxazolone = test: self-aminoacylation, catalytic enhancement (BWO) (fold over background); higher = more active; k-Seq, kA / k0A0; sequences stand for … in GGGAAUGGAUCCACAUCUACGAAUUC…UUCACUGCAGACUUGACGAAGCUG
Method in brief: as §1

CUAGUUCAAAAAAUCGGUCUG [Fam1A.1 aminoacylation ribozyme variant]
self-aminoacylation (biotinyl-Ile-oxazolone): 0.934 | self-aminoacylation (biotinyl-Leu-oxazolone): 0.838 | self-aminoacylation (biotinyl-Phe-oxazolone): 2.72 | self-aminoacylation (biotinyl-Met-oxazolone): 0.842 | self-aminoacylation (biotinyl-Val-oxazolone): 0.752 | self-aminoacylation (biotinyl-Trp-oxazolone): 2.08

CUAGUUCUAACAAUCGGUCUG [Fam1A.1 aminoacylation ribozyme variant]
self-aminoacylation (biotinyl-Ile-oxazolone): 0.831 | self-aminoacylation (biotinyl-Leu-oxazolone): 0.849 | self-aminoacylation (biotinyl-Phe-oxazolone): 0.672 | self-aminoacylation (biotinyl-Met-oxazolone): 0.762 | self-aminoacylation (biotinyl-Val-oxazolone): 0.762 | self-aminoacylation (biotinyl-Trp-oxazolone): 0.588

CUAUUUCAAACAAUCGGUCUC [Fam1A.1 aminoacylation ribozyme variant]
self-aminoacylation (biotinyl-Ile-oxazolone): 0.818 | self-aminoacylation (biotinyl-Leu-oxazolone): 0.785 | self-aminoacylation (biotinyl-Phe-oxazolone): 7.11 | self-aminoacylation (biotinyl-Met-oxazolone): 0.775 | self-aminoacylation (biotinyl-Val-oxazolone): 0.835 | self-aminoacylation (biotinyl-Trp-oxazolone): 3.67

CUAUUUCAAACAUUCGGUCUG [Fam1A.1 aminoacylation ribozyme variant]
self-aminoacylation (biotinyl-Ile-oxazolone): 1.18 | self-aminoacylation (biotinyl-Leu-oxazolone): 1.16 | self-aminoacylation (biotinyl-Phe-oxazolone): 0.835 | self-aminoacylation (biotinyl-Met-oxazolone): 1.3 | self-aminoacylation (biotinyl-Val-oxazolone): 1.3 | self-aminoacylation (biotinyl-Trp-oxazolone): 1.16

CUCCACCUAGGUCAUCGGGUG [Fam2.2 aminoacylation ribozyme variant]
self-aminoacylation (biotinyl-Ile-oxazolone): 3.95 | self-aminoacylation (biotinyl-Leu-oxazolone): 5.74 | self-aminoacylation (biotinyl-Phe-oxazolone): 36.3 | self-aminoacylation (biotinyl-Met-oxazolone): 5.98 | self-aminoacylation (biotinyl-Val-oxazolone): 5.19 | self-aminoacylation (biotinyl-Trp-oxazolone): 7.04

CUCCUUCAAACAAUCGCUCUG [Fam1A.1 aminoacylation ribozyme variant]
self-aminoacylation (biotinyl-Ile-oxazolone): 0.73 | self-aminoacylation (biotinyl-Leu-oxazolone): 0.78 | self-aminoacylation (biotinyl-Phe-oxazolone): 2.77 | self-aminoacylation (biotinyl-Met-oxazolone): 0.531 | self-aminoacylation (biotinyl-Val-oxazolone): 0.666 | self-aminoacylation (biotinyl-Trp-oxazolone): 2.01

CUCCUUCAAACAAUGGGUCUG [Fam1A.1 aminoacylation ribozyme variant]
self-aminoacylation (biotinyl-Ile-oxazolone): 0.855 | self-aminoacylation (biotinyl-Leu-oxazolone): 1.05 | self-aminoacylation (biotinyl-Phe-oxazolone): 0.816 | self-aminoacylation (biotinyl-Met-oxazolone): 0.901 | self-aminoacylation (biotinyl-Val-oxazolone): 0.982 | self-aminoacylation (biotinyl-Trp-oxazolone): 0.877

CUCCUUCAAACCAUCGGUCUG [Fam1A.1 aminoacylation ribozyme variant]
self-aminoacylation (biotinyl-Ile-oxazolone): 0.815 | self-aminoacylation (biotinyl-Leu-oxazolone): 0.781 | self-aminoacylation (biotinyl-Phe-oxazolone): 1.69 | self-aminoacylation (biotinyl-Met-oxazolone): 0.805 | self-aminoacylation (biotinyl-Val-oxazolone): 0.977 | self-aminoacylation (biotinyl-Trp-oxazolone): 0.905

CUCCUUCAACCAAUCGGUCUG [Fam1A.1 aminoacylation ribozyme variant]
self-aminoacylation (biotinyl-Ile-oxazolone): 1.11 | self-aminoacylation (biotinyl-Leu-oxazolone): 1.33 | self-aminoacylation (biotinyl-Phe-oxazolone): 29.5 | self-aminoacylation (biotinyl-Met-oxazolone): 1.1 | self-aminoacylation (biotinyl-Val-oxazolone): 1.16 | self-aminoacylation (biotinyl-Trp-oxazolone): 19.8

CUCCUUCAAGCAAUCGGUCUG [Fam1A.1 aminoacylation ribozyme variant]
self-aminoacylation (biotinyl-Ile-oxazolone): 1.09 | self-aminoacylation (biotinyl-Leu-oxazolone): 1.58 | self-aminoacylation (biotinyl-Phe-oxazolone): 14.1 | self-aminoacylation (biotinyl-Met-oxazolone): 1.2 | self-aminoacylation (biotinyl-Val-oxazolone): 1.09 | self-aminoacylation (biotinyl-Trp-oxazolone): 10.2

CUGACCCUGGUCAUCGAGUGA [Fam2.1 aminoacylation ribozyme variant]
self-aminoacylation (biotinyl-Ile-oxazolone): 3.64 | self-aminoacylation (biotinyl-Leu-oxazolone): 7.94 | self-aminoacylation (biotinyl-Phe-oxazolone): 7.35 | self-aminoacylation (biotinyl-Met-oxazolone): 7.22 | self-aminoacylation (biotinyl-Val-oxazolone): 4.5 | self-aminoacylation (biotinyl-Trp-oxazolone): 8.61

CUGCUGCAAACAAUCGGUCUG [Fam1A.1 aminoacylation ribozyme variant]
self-aminoacylation (biotinyl-Ile-oxazolone): 1.05 | self-aminoacylation (biotinyl-Leu-oxazolone): 1.31 | self-aminoacylation (biotinyl-Phe-oxazolone): 1.81 | self-aminoacylation (biotinyl-Met-oxazolone): 0.995 | self-aminoacylation (biotinyl-Val-oxazolone): 1.07 | self-aminoacylation (biotinyl-Trp-oxazolone): 1.53

CUGCUUCAAACAAUCAGUCUG [Fam1A.1 aminoacylation ribozyme variant]
self-aminoacylation (biotinyl-Ile-oxazolone): 0.738 | self-aminoacylation (biotinyl-Leu-oxazolone): 1.21 | self-aminoacylation (biotinyl-Phe-oxazolone): 40.5 | self-aminoacylation (biotinyl-Met-oxazolone): 0.723 | self-aminoacylation (biotinyl-Val-oxazolone): 0.77 | self-aminoacylation (biotinyl-Trp-oxazolone): 12.5

CUGCUUCAAACAAUCGGCCUG [Fam1A.1 aminoacylation ribozyme variant]
self-aminoacylation (biotinyl-Ile-oxazolone): 3.07 | self-aminoacylation (biotinyl-Leu-oxazolone): 6.94 | self-aminoacylation (biotinyl-Phe-oxazolone): 449 | self-aminoacylation (biotinyl-Met-oxazolone): 3.69 | self-aminoacylation (biotinyl-Val-oxazolone): 3.35 | self-aminoacylation (biotinyl-Trp-oxazolone): 162

CUGCUUCAAACAAUCGGUCUG [Fam1A.1 aminoacylation ribozyme variant]
self-aminoacylation (biotinyl-Ile-oxazolone): 1.29 | self-aminoacylation (biotinyl-Leu-oxazolone): 2.83 | self-aminoacylation (biotinyl-Phe-oxazolone): 125 | self-aminoacylation (biotinyl-Met-oxazolone): 1.72 | self-aminoacylation (biotinyl-Val-oxazolone): 1.35 | self-aminoacylation (biotinyl-Trp-oxazolone): 53.5

CUGCUUCAAACAUUCGGUCUG [Fam1A.1 aminoacylation ribozyme variant]
self-aminoacylation (biotinyl-Ile-oxazolone): 1.29 | self-aminoacylation (biotinyl-Leu-oxazolone): 1.25 | self-aminoacylation (biotinyl-Phe-oxazolone): 1.11 | self-aminoacylation (biotinyl-Met-oxazolone): 1.12 | self-aminoacylation (biotinyl-Val-oxazolone): 1.62 | self-aminoacylation (biotinyl-Trp-oxazolone): 0.813

CUGCUUCAACCAAUCGGUCUG [Fam1A.1 aminoacylation ribozyme variant]
self-aminoacylation (biotinyl-Ile-oxazolone): 1.31 | self-aminoacylation (biotinyl-Leu-oxazolone): 2.45 | self-aminoacylation (biotinyl-Phe-oxazolone): 79.4 | self-aminoacylation (biotinyl-Met-oxazolone): 1.41 | self-aminoacylation (biotinyl-Val-oxazolone): 1.38 | self-aminoacylation (biotinyl-Trp-oxazolone): 43.2

CUUACACUGGUCAUCGAGUGA [Fam2.1 aminoacylation ribozyme variant]
self-aminoacylation (biotinyl-Ile-oxazolone): 2.65 | self-aminoacylation (biotinyl-Leu-oxazolone): 4.41 | self-aminoacylation (biotinyl-Phe-oxazolone): 10.2 | self-aminoacylation (biotinyl-Met-oxazolone): 4.19 | self-aminoacylation (biotinyl-Val-oxazolone): 2.69 | self-aminoacylation (biotinyl-Trp-oxazolone): 4.94

CUUACCCGGGUCAUCGAGUGA [Fam2.1 aminoacylation ribozyme variant]
self-aminoacylation (biotinyl-Ile-oxazolone): 3.03 | self-aminoacylation (biotinyl-Leu-oxazolone): 7.48 | self-aminoacylation (biotinyl-Phe-oxazolone): 36.5 | self-aminoacylation (biotinyl-Met-oxazolone): 5.92 | self-aminoacylation (biotinyl-Val-oxazolone): 3.48 | self-aminoacylation (biotinyl-Trp-oxazolone): 7.34

CUUACCCUCGUCAUCGAGUGA [Fam2.1 aminoacylation ribozyme variant]
self-aminoacylation (biotinyl-Ile-oxazolone): 1.82 | self-aminoacylation (biotinyl-Leu-oxazolone): 2.47 | self-aminoacylation (biotinyl-Phe-oxazolone): 3.66 | self-aminoacylation (biotinyl-Met-oxazolone): 2.42 | self-aminoacylation (biotinyl-Val-oxazolone): 1.92 | self-aminoacylation (biotinyl-Trp-oxazolone): 3.21

CUUACCCUGGUCAACGAGUGA [Fam2.1 aminoacylation ribozyme variant]
self-aminoacylation (biotinyl-Ile-oxazolone): 2.56 | self-aminoacylation (biotinyl-Leu-oxazolone): 5.08 | self-aminoacylation (biotinyl-Phe-oxazolone): 15.8 | self-aminoacylation (biotinyl-Met-oxazolone): 5.06 | self-aminoacylation (biotinyl-Val-oxazolone): 3.29 | self-aminoacylation (biotinyl-Trp-oxazolone): 6.73

CUUACCCUGGUCACCGAGUGA [Fam2.1 aminoacylation ribozyme variant]
self-aminoacylation (biotinyl-Ile-oxazolone): 3.87 | self-aminoacylation (biotinyl-Leu-oxazolone): 8.9 | self-aminoacylation (biotinyl-Phe-oxazolone): 57.1 | self-aminoacylation (biotinyl-Met-oxazolone): 9.14 | self-aminoacylation (biotinyl-Val-oxazolone): 4.49 | self-aminoacylation (biotinyl-Trp-oxazolone): 8.62

CUUACCCUGGUCAUCCAGUGA [Fam2.1 aminoacylation ribozyme variant]
self-aminoacylation (biotinyl-Ile-oxazolone): 2.37 | self-aminoacylation (biotinyl-Leu-oxazolone): 4.63 | self-aminoacylation (biotinyl-Phe-oxazolone): 16.9 | self-aminoacylation (biotinyl-Met-oxazolone): 4.04 | self-aminoacylation (biotinyl-Val-oxazolone): 2.77 | self-aminoacylation (biotinyl-Trp-oxazolone): 5.03
